The text below walks through data of the supplement of paper PMC5998384.

Data set [1] has as its system HeLa Kyoto. The experiment in a line: solubility change mitosis vs G1/S (difference of NP-40 vs SDS log2 ratios) (log2 ratio difference); higher = more soluble in mitosis.
The test system of data set [2] is HeLa Kyoto. The experiment in a line: solubility in G1/S (NP-40 vs SDS abundance) (log2 ratio); higher = more soluble. The conditions noted are these: cell cycle stage: G1/S.
For data set [3], the system named is HeLa Kyoto. As to the kind of experiment: thermal stability score vs G1/S (z-score of summed log2 fold changes over temperatures); higher = more thermally stable than in G1/S.
Data set [4] deals with HeLa Kyoto. As to the kind of experiment: melting temperature (median over replicates), in situ; higher = more thermally stable.
[5] abbreviates: cell cycle stage: early G1 (4.5 h after nocodazole release).
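For melting temperature (median over replicates), in situ in this document: HeLa Kyoto cells synchronized by double thymidine or nocodazole block, proteins quantified by TMT10plex mass spectrometry, three independent biological replicates.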
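For solubility change mitosis vs G1/S (difference of NP-40 vs SDS log2 ratios) in this document: synchronized HeLa Kyoto cells (double thymidine block for G1/S, nocodazole release for mitosis), protein amounts in NP-40 versus SDS lysates quantified by mass spectrometry, three biological replicates.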
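For solubility in G1/S (NP-40 vs SDS abundance) in this document: HeLa Kyoto cells arrested at G1/S by double thymidine block, proteins quantified by TMT10plex mass spectrometry in mild NP-40 versus SDS extracts, three biological replicates.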
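For thermal stability score vs G1/S (z-score of summed log2 fold changes over temperatures) in this document: synchronized HeLa Kyoto cells, proteins quantified by TMT10plex mass spectrometry, three biological replicates, mitosis taken 0.5 h after nocodazole release, G1/S directly after double thymidine block.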

With “MADKEKKKKESILDLSKYIDKTIRVKFQGGREASGILKGFDPLLNLVLDGTIEYMRDPDDQYKLTEDTRQLGLVVCRGTSVVLICPQDGMEAIPNPFIQQQDA [LSM7]”, the “solubility change mitosis (log2)” value in the data set on HeLa Kyoto [1] stood at 0.227. Further, the “solubility in G1/S (log2)” value in the data set with HeLa Kyoto [2] was 0.0991. The results for the thermal stability score in the data set on HeLa Kyoto [3] (setting [5]) and in the data set on HeLa Kyoto [3] (cell cycle stage: mitosis) were -1.51 and -2.73, respectively. Moreover, the melting temperature came to 55.3 °C in the data set with HeLa Kyoto [4] (cell cycle stage: G1/S) and 53.7 °C with HeLa Kyoto [4] (cell cycle stage: mitosis).

For the sequence “MADKVLKEKRKLFIRSMGEGTINGLLDELLQTRVLNKEEMEKVKRENATVMDKTRALIDSVIPKGAQACQICITYICEEDSYLAGTLGLSADQTSGNYLNMQDSQGVLSSFPAPQAVQDNPAMPTSSGSEGNVKLCSLEEAQRIWKQKSAEIYPIMDKSSRTRLALIICNEEFDSIPRRTGAEVDITGMTMLLQNLGYSVDVKKNLTASDMTTELEAFAHRPEHKTSDSTFLVFMSHGIREGICGKKHSEQVPDILQLNAIFNMLNTKNCPSLKDKPKVIIIQACRGDSPGVVWFKDSVGVSGNLSLPTTEEFEDDAIKKAHIEKDFIAFCSSTPDNVSWRHPTMGSVFIGRLIEHMQEYACSCDVEEIFRKVRFSFEQPDGRAQMPTTERVTLTRCFYLFPGH [CASP1]”, the “solubility change mitosis (log2)” value in the data set on HeLa Kyoto [1] is -0.0916. The “solubility in G1/S (log2)” value in the data set on HeLa Kyoto [2] was determined as 0.0768. Also, the thermal stability score in the data set on HeLa Kyoto [3] (setting [5]) turned out to be 0.996; with HeLa Kyoto [3] (cell cycle stage: mitosis), 1.73. The melting temperature with HeLa Kyoto [4] (cell cycle stage: G1/S) came out at 51.5 °C; in the data set on HeLa Kyoto [4] (cell cycle stage: mitosis), 49.6 °C.

For “MADLAECNIKVMCRFRPLNESEVNRGDKYIAKFQGEDTVVIASKPYAFDRVFQSSTSQEQVYNDCAKKIVKDVLEGYNGTIFAYGQTSSGKTHTMEGKLHDPEGMGIIPRIVQDIFNYIYSMDENLEFHIKVSYFEIYLDKIRDLLDVSKTNLSVHEDKNRVPYVKGCTERFVCSPDEVMDTIDEGKSNRHVAVTNMNEHSSRSHSIFLINVKQENTQTEQKLSGKLYLVDLAGSEKVSKTGAEGAVLDEAKNINKSLSALGNVISALAEGSTYVPYRDSKMTRILQDSLGGNCRTTIVICCSPSSYNESETKSTLLFGQRAKTIKNTVCVNVELTAEQWKKKYEKEKEKNKILRNTIQWLENELNRWRNGETVPIDEQFDKEKANLEAFTVDKDITLTNDKPATAIGVIGNFTDAERRKCEEEIAKLYKQLDDKDEEINQQSQLVEKLKTQMLDQEELLASTRRDQDNMQAELNRLQAENDASKEEVKEVLQALEELAVNYDQKSQEVEDKTKEYELLSDELNQKSATLASIDAELQKLKEMTNHQKKRAAEMMASLLKDLAEIGIAVGNNDVKQPEGTGMIDEEFTVARLYISKMKSEVKTMVKRCKQLESTQTESNKKMEENEKELAACQLRISQHEAKIKSLTEYLQNVEQKKRQLEESVDALSEELVQLRAQEKVHEMEKEHLNKVQTANEVKQAVEQQIQSHRETHQKQISSLRDEVEAKAKLITDLQDQNQKMMLEQERLRVEHEKLKATDQEKSRKLHELTVMQDRREQARQDLKGLEETVAKELQTLHNLRKLFVQDLATRVKKSAEIDSDDTGGSAAQKQKISFLENNLEQLTKVHKQLVRDNADLRCELPKLEKRLRATAERVKALESALKEAKENASRDRKRYQQEVDRIKEAVRSKNMARRGHSAQIAKPIRPGQHPAASPTHPSAIRGGGAFVQNSQPVAVRGGGGKQV [KIF5B]”, the “solubility change mitosis (log2)” value with HeLa Kyoto [1] was -0.0355. In the data set with HeLa Kyoto [2], the “solubility in G1/S (log2)” value came out at 0.108. In addition, the thermal stability score in the data set on HeLa Kyoto [3] (setting [5]) was 1.12; with HeLa Kyoto [3] (cell cycle stage: mitosis), 0.152. Further, the melting temperature in the data set with HeLa Kyoto [4] (cell cycle stage: G1/S) and in the data set on HeLa Kyoto [4] (cell cycle stage: mitosis) was 51.5 °C in each case.

Consider “MADLDSPPKLSGVQQPSEGVGGGRCSEISAELIRSLTELQELEAVYERLCGEEKVVERELDALLEQQNTIESKMVTLHRMGPNLQLIEGDAKQLAGMITFTCNLAENVSSKVRQLDLAKNRLYQAIQRADDILDLKFCMDGVQTALRSEDYEQAAAHTHRYLCLDKSVIELSRQGKEGSMIDANLKLLQEAEQRLKAIVAEKFAIATKEGDLPQVERFFKIFPLLGLHEEGLRKFSEYLCKQVASKAEENLLMVLGTDMSDRRAAVIFADTLTLLFEGIARIVETHQPIVETYYGPGRLYTLIKYLQVECDRQVEKVVDKFIKQRDYHQQFRHVQNNLMRNSTTEKIEPRELDPILTEVTLMNARSELYLRFLKKRISSDFEVGDSMASEEVKQEHQKCLDKLLNNCLLSCTMQELIGLYVTMEEYFMRETVNKAVALDTYEKGQLTSSMVDDVFYIVKKCIGRALSSSSIDCLCAMINLATTELESDFRDVLCNKLRMGFPATTFQDIQRGVTSAVNIMHSSLQQGKFDTKGIESTDEAKMSFLVTLNNVEVCSENISTLKKTLESDCTKLFSQGIGGEQAQAKFDSCLSDLAAVSNKFRDLLQEGLTELNSTAIKPQVQPWINSFFSVSHNIEEEEFNDYEANDPWVQQFILNLEQQMAEFKASLSPVIYDSLTGLMTSLVAVELEKVVLKSTFNRLGGLQFDKELRSLIAYLTTVTTWTIRDKFARLSQMATILNLERVTEILDYWGPNSGPLTWRLTPAEVRQVLALRIDFRSEDIKRLRL [COG4]”, for which the “solubility change mitosis (log2)” value in the data set on HeLa Kyoto [1] is -0.175. The “solubility in G1/S (log2)” value in the data set on HeLa Kyoto [2] is -0.0589. The thermal stability score with HeLa Kyoto [3] (setting [5]) was determined as 0.91; with HeLa Kyoto [3] (cell cycle stage: mitosis) it was 1.79. Also, the melting temperature in the data set with HeLa Kyoto [4] (cell cycle stage: G1/S) stood at 48.7 °C; with HeLa Kyoto [4] (cell cycle stage: mitosis), 49.6 °C.

Regarding “MADLEAVLADVSYLMAMEKSKATPAARASKKILLPEPSIRSVMQKYLEDRGEVTFEKIFSQKLGYLLFRDFCLNHLEEARPLVEFYEEIKKYEKLETEEERVARSREIFDSYIMKELLACSHPFSKSATEHVQGHLGKKQVPPDLFQPYIEEICQNLRGDVFQKFIESDKFTRFCQWKNVELNIHLTMNDFSVHRIIGRGGFGEVYGCRKADTGKMYAMKCLDKKRIKMKQGETLALNERIMLSLVSTGDCPFIVCMSYAFHTPDKLSFILDLMNGGDLHYHLSQHGVFSEADMRFYAAEIILGLEHMHNRFVVYRDLKPANILLDEHGHVRISDLGLACDFSKKKPHASVGTHGYMAPEVLQKGVAYDSSADWFSLGCMLFKLLRGHSPFRQHKTKDKHEIDRMTLTMAVELPDSFSPELRSLLEGLLQRDVNRRLGCLGRGAQEVKESPFFRSLDWQMVFLQKYPPPLIPPRGEVNAADAFDIGSFDEEDTKGIKLLDSDQELYRNFPLTISERWQQEVAETVFDTINAETDRLEARKKAKNKQLGHEEDYALGKDCIMHGYMSKMGNPFLTQWQRRYFYLFPNRLEWRGEGEAPQSLLTMEEIQSVEETQIKERKCLLLKIRGGKQFILQCDSDPELVQWKKELRDAYREAQQLVQRVPKMKNKPRSPVVELSKVPLVQRGSANGL [ADRBK1]”, the “solubility change mitosis (log2)” value with HeLa Kyoto [1] is -0.0655. The “solubility in G1/S (log2)” value in the data set on HeLa Kyoto [2] is -0.107. In addition, the thermal stability score in the data set with HeLa Kyoto [3] (setting [5]) was determined as 1.35; in the data set on HeLa Kyoto [3] (cell cycle stage: mitosis), 0.436. Besides, the melting temperature in the data set on HeLa Kyoto [4] (cell cycle stage: G1/S) was 51.6 °C; in the data set on HeLa Kyoto [4] (cell cycle stage: mitosis) it was 51.4 °C.

Regarding “MADLSLLQEDLQEDADGFGVDDYSSESDVIIIPSALDFVSQDEMLTPLGRLDKYAASENIFNRQMVARSLLDTLREVCDDERDCIAVLERISRLADDSEPTVRAELMEQVPHIALFCQENRPSIPYAFSKFLLPIVVRYLADQNNQVRKTSQAALLALLEQELIERFDVETKVCPVLIELTAPDSNDDVKTEAVAIMCKMAPMVGKDITERLILPRFCEMCCDCRMFHVRKVCAANFGDICSVVGQQATEEMLLPRFFQLCSDNVWGVRKACAECFMAVSCATCQEIRRTKLSALFINLISDPSRWVRQAAFQSLGPFISTFANPSSSGQYFKEESKSSEEMSVENKNRTRDQEAPEDVQVRPEDTPSDLSVSNSSVILENTMEDHAAEASGKPLGEISVPLDSSLLCTLSSESHQEAASNENDKKPGNYKSMLRPEVGTTSQDSALLDQELYNSFHFWRTPLPEIDLDIELEQNSGGKPSPEGPEEESEGPVPSSPNITMATRKELEEMIENLEPHIDDPDVKAQVEVLSAALRASSLDAHEETISIEKRSDLQDELDINELPNCKINQEDSVPLISDAVENMDSTLHYIHSDSDLSNNSSFSPDEERRTKVQDVVPQALLDQYLSMTDPSRAQTVDTEIAKHCAYSLPGVALTLGRQNWHCLRETYETLASDMQWKVRRTLAFSIHELAVILGDQLTAADLVPIFNGFLKDLDEVRIGVLKHLHDFLKLLHIDKRREYLYQLQEFLVTDNSRNWRFRAELAEQLILLLELYSPRDVYDYLRPIALNLCADKVSSVRWISYKLVSEMVKKLHAATPPTFGVDLINELVENFGRCPKWSGRQAFVFVCQTVIEDDCLPMDQFAVHLMPHLLTLANDRVPNVRVLLAKTLRQTLLEKDYFLASASCHQEAVEQTIMALQMDRDSDVKYFASIHPASTKISEDAMSTASSTY [PPP4R1]”, the “solubility change mitosis (log2)” value with HeLa Kyoto [1] is -0.155. In addition, the “solubility in G1/S (log2)” value in the data set on HeLa Kyoto [2] is -0.0857. Besides, the results for the thermal stability score with HeLa Kyoto [3] (setting [5]) and with HeLa Kyoto [3] (cell cycle stage: mitosis) were -0.471 and -0.62, respectively. In addition, the melting temperature in the data set on HeLa Kyoto [4] (cell cycle stage: G1/S) turned out to be 51.6 °C; in the data set with HeLa Kyoto [4] (cell cycle stage: mitosis) it was 50.8 °C.
